Positions count from the first letter of the chain named.
T1: human HER4 antigen (human, UniProt Q15303 26-649, limits assumed)
T1 construct: Antigen coated for ELISA
T1 sequence (looked up): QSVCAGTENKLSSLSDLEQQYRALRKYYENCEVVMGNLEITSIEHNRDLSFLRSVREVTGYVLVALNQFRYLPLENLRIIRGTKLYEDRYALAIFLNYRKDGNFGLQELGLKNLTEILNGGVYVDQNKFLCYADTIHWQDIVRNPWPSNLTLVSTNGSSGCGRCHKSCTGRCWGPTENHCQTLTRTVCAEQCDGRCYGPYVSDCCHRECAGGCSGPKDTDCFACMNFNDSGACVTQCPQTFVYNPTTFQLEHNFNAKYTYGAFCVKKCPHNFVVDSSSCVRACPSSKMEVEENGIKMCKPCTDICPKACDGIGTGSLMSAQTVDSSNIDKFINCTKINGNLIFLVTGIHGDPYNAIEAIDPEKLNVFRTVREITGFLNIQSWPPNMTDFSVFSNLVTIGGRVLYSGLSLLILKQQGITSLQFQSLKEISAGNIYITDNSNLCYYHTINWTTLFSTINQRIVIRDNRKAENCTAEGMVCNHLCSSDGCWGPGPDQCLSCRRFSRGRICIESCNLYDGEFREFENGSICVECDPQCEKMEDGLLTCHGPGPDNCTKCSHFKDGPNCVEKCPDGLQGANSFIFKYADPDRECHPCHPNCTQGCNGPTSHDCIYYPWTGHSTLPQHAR

T2: murine HER4 antigen (mouse, UniProt Q61527 26-652, limits assumed)
T2 construct: In-house antigen coated for ELISA; also called mouse HER4
T2 sequence (looked up): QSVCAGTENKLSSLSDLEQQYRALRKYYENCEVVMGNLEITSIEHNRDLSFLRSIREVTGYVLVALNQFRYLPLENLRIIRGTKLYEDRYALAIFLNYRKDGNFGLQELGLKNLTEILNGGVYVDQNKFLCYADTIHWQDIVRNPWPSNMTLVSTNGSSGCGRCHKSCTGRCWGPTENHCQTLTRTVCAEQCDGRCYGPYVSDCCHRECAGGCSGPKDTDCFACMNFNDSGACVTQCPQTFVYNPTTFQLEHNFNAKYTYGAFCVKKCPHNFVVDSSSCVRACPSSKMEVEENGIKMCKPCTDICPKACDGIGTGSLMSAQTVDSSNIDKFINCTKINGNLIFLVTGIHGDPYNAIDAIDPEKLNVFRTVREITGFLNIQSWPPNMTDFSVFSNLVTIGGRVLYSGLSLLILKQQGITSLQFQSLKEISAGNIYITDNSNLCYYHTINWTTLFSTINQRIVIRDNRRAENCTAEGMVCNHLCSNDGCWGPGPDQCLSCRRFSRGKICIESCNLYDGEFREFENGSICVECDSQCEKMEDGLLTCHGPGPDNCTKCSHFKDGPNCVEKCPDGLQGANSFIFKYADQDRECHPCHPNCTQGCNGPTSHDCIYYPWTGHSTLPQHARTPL

B1: chimeric anti-HER3 antibody 5082 (antibody, V domains shown)
VH: EVQLKESGPGLVKPSQSLSLTCSVTGYSITSAYYWNWIRQFPGNKVEWMGYIGYDGRNTYNPSLKNRISITRDTSKNQFFLKLNSLTTEDTATYYCSREGDYGYSDYWGQGTTLTVS
VL: DIVMTQATSSLSASLGDRVTVSCRASQDINNYLNWYQQKPDGTVKLLIYYTSRLQSGVPSRFSGSGSGIDYSLTISNLEQEDFVTYFCQQSETLPWTFGGGTKLELKR
notes: light chain entry is full length
B2: humanized anti-HER3 antibody 10738 (antibody, V domains shown)
VH: QVQLQESGPGLVKPSQTLSLTCTVSGYSITSGFYWTWIRQHPGKGLEWMGFISYSGSNNYNPSLKNRITISVDTSKNQFSLKLSSVTAADTAVYYCARGGGYYGNLFDYWGQGTLVTVSS
VL: DIQMTQSPSSLSASVGDRVTITCRPSQDISNYVNWFQQKPGKAVKLLIFHTSRLHSGVPSRFSGSGSGTDFTFTISSLQPEDIAIYYCQQGITLPWTFGQGTKVEIK
B3: humanized anti-HER3 antibody 10810 (antibody, V domains shown)
VH: B2 VH with K44N, M49I, I68V, V93T
VL: B2 VL with V44P, F73L, I85T
B4: humanized anti-HER3 antibody 11006 (antibody, V domains shown)
VH: QVQLQESGPGLVKPSQTLSLTCTVSGYSITSAYYWNWIRQHPGKGVEWMGYIGYSGRNTYNPSLKNRVTISRDTSKNQFSLKLSSVTAADTAVYYCSREGDYGYSDYWGQGTLVTVSS
VL: DIQMTQSPSSLSASVGDRVTVTCRASQDTNNYLNWYQQKPGKAVKLLIYYTSRLQSGVPSRFSGSGSGTDFTLTISSLQPEDFATYFCQQSETLPWTFGQGTKVEIK
B5: chimeric anti-HER3 antibody 5038 (antibody, V domains shown)
VH: EVKLVESGPGLVKPSQSLSLTCSVTGYSITSGFYWTWIRQFPGNKLEWMGFISYDGSNNYNPSLKNRISITRDTSKNQFFLKLNSVTTEDTATYYCARGGGYYGNLFDYWGQGTTLTVS
VL: DIVMTQTTSSLSASLGDRVTISCRPSQDISNYVNWFQQKPGGTVKLLIFHTSRLHSGVPSRFSGSGSGTDYSLTISTLEQEDIAIYFCQQGITLPWTFGGGTKLEIKR
notes: as for B1
B6: humanized anti-EGFR antibody 10460 (antibody, V domains shown)
VH: EVQLVESGGGLVQPGGSLRLSCAASGFAFSYSDMSWVRQAPGKRLEWVSYMSSAGDVTFYSDTVKGRFTISRDNAKNSLYLQVNSLRAEDTAVYYCVRHRDVAIDYWGQGTTVTVSS
VL: DVVMTQSPLSLPVTLGQPASISCRSSQSLVHSNGNTYLHWYQQRPGQSPRLLIYKVSNRFSGVPDRFSGSGSGTDFTLKISRVEAEDVGVYFCSQSTHVPTFGGGTKLEIK

What follows are binders tested against T3, cynomolgus EGFR antigen (cynomolgus monkey, UniProt A0A2K5WK39 25-645) (assay: ELISA, coated cy EGFR).
T3 construct: In-house antigen; also called cynomolgus antigen
Procedure: (§1) Antibody-antigen binding was measured by ELISA with coated antigens. Human antigens were obtained from Sino Biologicals. All other antigens were produced in-house by transient expression in CHO or HEK293 cells. Chimeric and humanized antibodies, as well as an isotype control antibody, were incubated with the coated antigens at different concentrations. After wash, bound antibodies were detected by HRP-(horse radish peroxidase)-conjugated secondary antibodies.

Row | binding result | Binder
1 | no binding (tested: 40 nM) | B1
2 | no binding (tested: 40 nM) | B2
3 | no binding (tested: 40 nM) | B3
4 | no binding (tested: 40 nM) | B4
5 | no binding (tested: 40 nM) | B5

Each binder was assayed against T4, cynomolgus HER3 antigen (cynomolgus monkey, UniProt G7PIG5 20-643) (assay: ELISA, coated cy HER3).
T4 construct: In-house antigen; also called cynomolgus antigen
Procedure: as §1

T4 sequence (G7PIG5 entry or part of it): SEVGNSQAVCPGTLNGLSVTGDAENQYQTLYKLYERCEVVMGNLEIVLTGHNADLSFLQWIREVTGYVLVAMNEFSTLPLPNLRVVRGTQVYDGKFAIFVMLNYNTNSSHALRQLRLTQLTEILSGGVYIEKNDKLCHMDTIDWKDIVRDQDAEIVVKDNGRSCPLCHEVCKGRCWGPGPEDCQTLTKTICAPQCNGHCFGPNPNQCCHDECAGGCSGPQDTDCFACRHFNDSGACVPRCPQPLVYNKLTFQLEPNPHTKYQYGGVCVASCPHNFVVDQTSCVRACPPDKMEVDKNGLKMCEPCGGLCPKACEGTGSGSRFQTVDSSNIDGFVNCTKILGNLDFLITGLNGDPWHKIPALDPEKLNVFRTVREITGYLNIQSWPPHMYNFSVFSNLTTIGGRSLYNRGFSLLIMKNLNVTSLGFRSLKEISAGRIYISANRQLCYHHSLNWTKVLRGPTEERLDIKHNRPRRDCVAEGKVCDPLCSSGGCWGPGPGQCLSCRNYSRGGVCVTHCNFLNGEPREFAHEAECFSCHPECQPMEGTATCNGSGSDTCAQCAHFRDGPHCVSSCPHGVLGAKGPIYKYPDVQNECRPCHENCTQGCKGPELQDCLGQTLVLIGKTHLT

Row | binding result | Binder
6 | no binding (tested: 40 nM) | B6

What follows are binders tested against T5, human EGFR antigen (Sino Biologicals) (human, UniProt P00533 25-645) (assay: ELISA, coated hu EGFR).
T5 construct: Bought soluble antigen; also called human antigen
Procedure: as §1

Row | binding result | Binder
7 | no binding (tested: 40 nM) | B1
8 | no binding (tested: 40 nM) | B2
9 | no binding (tested: 40 nM) | B3
10 | no binding (tested: 40 nM) | B4
11 | no binding (tested: 40 nM) | B5

Each binder was assayed against T6, human HER2 antigen (Sino Biologicals) (human, UniProt P04626 23-652) (assay: ELISA, coated hu HER2).
T6 construct: Bought soluble antigen; also called human antigen
Procedure: as §1

Row | binding result | Binder
12 | no binding (tested: 40 nM) | B6
13 | no binding (tested: 40 nM) | B1
14 | no binding (tested: 40 nM) | B2
15 | no binding (tested: 40 nM) | B3
16 | no binding (tested: 40 nM) | B4
17 | no binding (tested: 40 nM) | B5

These binders were tested against T7, human HER3 antigen (Sino Biologicals) (human, UniProt P21860 20-643) (assay: ELISA, coated hu HER3).
T7 construct: Bought soluble antigen; also called human antigen
Procedure: as §1

Row | binding result | Binder
18 | no binding (tested: 40 nM) | B6

Each binder was assayed against T1, human HER4 antigen (assay: ELISA, coated hu HER4).
Procedure: as §1

Row | binding result | Binder
19 | no binding (tested: 40 nM) | B6
20 | no binding (tested: 40 nM) | B1
21 | no binding (tested: 40 nM) | B2
22 | no binding (tested: 40 nM) | B3
23 | no binding (tested: 40 nM) | B4
24 | no binding (tested: 40 nM) | B5

Each binder was assayed against T8, mouse EGFR antigen (mouse, UniProt Q01279 25-647, limits assumed) (assay: ELISA, coated mu EGFR).
T8 construct: In-house antigen coated for ELISA; also called mouse antigen; murine EGFR
Procedure: as §1

Row | binding result | Binder
25 | no binding (tested: 40 nM) | B6
26 | no binding (tested: 40 nM) | B1
27 | no binding (tested: 40 nM) | B2
28 | no binding (tested: 40 nM) | B3
29 | no binding (tested: 40 nM) | B4
30 | no binding (tested: 40 nM) | B5

Each binder was assayed against T9, mouse HER2 antigen (mouse, UniProt P70424 23-653, limits assumed) (assay: ELISA, coated mu HER2).
T9 construct: In-house antigen coated for ELISA; also called mouse antigen; murine HER2
Procedure: as §1

T9 sequence (P70424 23-653 limits assumed): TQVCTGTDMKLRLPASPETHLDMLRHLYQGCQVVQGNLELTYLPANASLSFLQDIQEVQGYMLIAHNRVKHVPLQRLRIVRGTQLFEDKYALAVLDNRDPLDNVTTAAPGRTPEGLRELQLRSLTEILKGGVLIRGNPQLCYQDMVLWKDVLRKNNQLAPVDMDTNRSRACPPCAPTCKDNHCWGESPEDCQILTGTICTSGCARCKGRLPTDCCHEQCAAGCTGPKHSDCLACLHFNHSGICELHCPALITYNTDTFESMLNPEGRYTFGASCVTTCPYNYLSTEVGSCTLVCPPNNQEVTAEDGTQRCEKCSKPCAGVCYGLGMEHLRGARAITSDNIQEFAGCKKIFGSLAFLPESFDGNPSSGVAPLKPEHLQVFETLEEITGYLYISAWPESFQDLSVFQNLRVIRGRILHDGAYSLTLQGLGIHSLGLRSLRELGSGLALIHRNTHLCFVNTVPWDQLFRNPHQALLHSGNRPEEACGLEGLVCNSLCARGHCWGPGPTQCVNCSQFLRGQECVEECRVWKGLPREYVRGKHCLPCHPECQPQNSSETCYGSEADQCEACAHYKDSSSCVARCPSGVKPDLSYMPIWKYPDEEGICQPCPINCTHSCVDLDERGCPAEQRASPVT

Row | binding result | Binder
31 | no binding (tested: 40 nM) | B6
32 | no binding (tested: 40 nM) | B1
33 | no binding (tested: 40 nM) | B2
34 | no binding (tested: 40 nM) | B3
35 | no binding (tested: 40 nM) | B4
36 | no binding (tested: 40 nM) | B5

These binders were tested against T10, mouse HER3 antigen (mouse, UniProt Q61526 20-641, limits assumed) (assay: ELISA, coated mu HER3).
T10 construct: In-house antigen coated for ELISA; also called mouse antigen; murine HER3
Procedure: as §1

T10 sequence (Q61526 20-641 limits assumed): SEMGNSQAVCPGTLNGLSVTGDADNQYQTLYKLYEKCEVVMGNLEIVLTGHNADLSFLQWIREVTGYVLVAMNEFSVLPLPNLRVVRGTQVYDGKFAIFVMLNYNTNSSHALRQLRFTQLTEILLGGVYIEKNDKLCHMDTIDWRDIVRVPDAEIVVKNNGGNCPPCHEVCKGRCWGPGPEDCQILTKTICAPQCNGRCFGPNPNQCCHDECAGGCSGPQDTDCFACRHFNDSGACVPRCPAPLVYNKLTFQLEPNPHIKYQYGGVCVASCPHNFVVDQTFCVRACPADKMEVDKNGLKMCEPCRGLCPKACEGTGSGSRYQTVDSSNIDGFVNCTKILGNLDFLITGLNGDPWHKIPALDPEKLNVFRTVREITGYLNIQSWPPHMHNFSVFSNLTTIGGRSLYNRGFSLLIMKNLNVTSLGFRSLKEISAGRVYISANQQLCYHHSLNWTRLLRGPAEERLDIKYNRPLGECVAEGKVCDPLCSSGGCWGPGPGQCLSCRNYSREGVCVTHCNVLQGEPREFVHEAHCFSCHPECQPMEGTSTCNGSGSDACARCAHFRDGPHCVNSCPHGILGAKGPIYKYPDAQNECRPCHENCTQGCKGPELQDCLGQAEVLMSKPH

Row | binding result | Binder
37 | no binding (tested: 40 nM) | B6
38 | no binding (tested: 40 nM) | B1
39 | no binding (tested: 40 nM) | B2
40 | no binding (tested: 40 nM) | B3
41 | no binding (tested: 40 nM) | B4
42 | no binding (tested: 40 nM) | B5

Each binder was assayed against T2, murine HER4 antigen (assay: ELISA, coated mu HER4).
Procedure: as §1

Row | binding result | Binder
43 | no binding (tested: 40 nM) | B6
44 | no binding (tested: 40 nM) | B1
45 | no binding (tested: 40 nM) | B2
46 | no binding (tested: 40 nM) | B3
47 | no binding (tested: 40 nM) | B4
48 | no binding (tested: 40 nM) | B5

What follows are binders tested against T7, human HER3 antigen (Sino Biologicals) (assay: SPR (ProteOn XPR36), IgG captured by anti-human Fc, soluble monovalent antigen, 1:1 fit).
Procedure: (§2) Kinetic binding analysis of the purified humanized variants was performed on a ProteOn™ XPR36 biosensor (BioRad, USA) employing an IgG capture assay as described by Canziani et al. (Anal. Biochem. (2004) 325:301-307) that allows for measurement of antibody affinities of whole IgG molecules against soluble antigen under monovalent conditions. Briefly, approximately 5000 resonance units (RU) of a monoclonal mouse anti-human IgG Fc antibody (GE Healthcare, Denmark) was conjugated to a GLC chip surface (BioRad, USA) according to the manufacturer's instructions, followed by capture of individual antibodies of the invention or a negative control on the anti-Fc sensor surface. […] Next, 250 μl monovalent antigen (Sino Biologicals) was injected at a flow rate of 50 μl/min in serial threefold dilutions from 100 nM stock to generate response curves. The chip surface was regenerated between cycles by stripping the captured antibody/antigen complexes off the surface with a 10-second injection of 3 M MgCl₂ (GE Healthcare, Denmark) repeated three times. Finally, binding responses were fitted to a Langmuir 1:1 binding model for calculation of the on-rate (kon or ka), off-rate (koff or kd) and affinity (KD) constants using double referencing.

Row | Kd | koff | kon | Binder
49 | 0.08 nM | 7.3e-05 s⁻¹ | 910000 M⁻¹ s⁻¹ | B1
50 | 1.1 nM | 0.0002 s⁻¹ | 190000 M⁻¹ s⁻¹ | B3
51 |  | < 2e-06 s⁻¹ | 740000 M⁻¹ s⁻¹ | B4
52 | 1.6 nM | 0.00048 s⁻¹ | 300000 M⁻¹ s⁻¹ | B5

Each binder was assayed against T4, cynomolgus HER3 antigen in the same assay as above.
Procedure: as §2

Row | Kd | koff | kon | Binder
53 | 0.098 nM | 0.00016 s⁻¹ | 1.7e+06 M⁻¹ s⁻¹ | B1
54 | 0.54 nM |  |  | B2
55 | 0.71 nM | 0.00034 s⁻¹ | 470000 M⁻¹ s⁻¹ | B3
56 | 0.059 nM | 8.7e-05 s⁻¹ | 1.5e+06 M⁻¹ s⁻¹ | B4
57 | 0.89 nM | 0.00041 s⁻¹ | 460000 M⁻¹ s⁻¹ | B5
